± gives the standard deviation of the averaged measurements.
Assays:
Saccharomyces cerevisiae [1] = assay: protein stability index of tFT-peptide fusion (C-terminal peptide) (PSI (0-1 scale)); higher = more stable (slower turnover); settings: genetic background: wild type; temperature: 30 C
Saccharomyces cerevisiae [2] = assay: as above
Description: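 MPS profiling in S. cerevisiae of the tFT-X12 degron library: putative degron peptides plus stable controls, 12 aa, fused to the C-terminus of a sfGFP-mCherry timer. Cells are FACS-sorted into 8 mCherry/sfGFP bins and deep-sequenced. PSI runs from 0 (unstable) to 1 (stable). Backgrounds are wild type, das1Δ and doa10Δ at 30 °C, and wild type, das1Δ, cdc34-1 and cdc53-1 at 37 °C; 2-3 technical replicates each.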

[3] = genetic background: cdc34-1, temperature: 37 C
[4] = genetic background: cdc53-1, temperature: 37 C
[5] = genetic background: das1 deletion, temperature: 30 C
[6] = genetic background: das1 deletion, temperature: 37 C
[7] = genetic background: doa10 deletion, temperature: 30 C
[8] = genetic background: wild type, temperature: 30 C
[9] = genetic background: wild type, temperature: 37 C
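Also: PSI is a weighted mean of sequencing reads over stability bins, variants kept only with over 10 reads, mCherry proximal and sfGFP distal, peptide attached via GGGS linker.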

Sequence	protein stability index (Saccharomyces cerevisiae [1])	protein stability index (Saccharomyces cerevisiae [2]; [3])	protein stability index (Saccharomyces cerevisiae [2]; [4])	protein stability index (Saccharomyces cerevisiae [2]; [5])	protein stability index (Saccharomyces cerevisiae [2]; [6])	protein stability index (Saccharomyces cerevisiae [2]; [7])	protein stability index (Saccharomyces cerevisiae [2]; [8])	protein stability index (Saccharomyces cerevisiae [2]; [9])
GMGRVLVEVLLC	0.165 ± 0.029	0.293 ± 0.0086	0.451 ± 0.036	0.317 ± 0.033	0.5187 ± 0.0023	0.0999 ± 0.0047	0.101 ± 0.021	0.0812 ± 0.017
GMLIYVIGGLSH	0.508 ± 0.06	0.652 ± 0.016	0.652 ± 0.04	0.435 ± 0.027	0.667 ± 0.017	0.438 ± 0.011	0.4464 ± 0.0034	0.626 ± 0.019
GMMLLRFIIRWY	0.173 ± 0.045	0.0773 ± 0.026	0.15 ± 0.027	0.141 ± 0.04	0.268 ± 0.0083	0.138 ± 0.0027	0.134 ± 0.03	0.212 ± 0.0061
GPFVRSALIFIF	0.407 ± 0.018	0.535 ± 0.04	0.582 ± 0.045	0.467 ± 0.021	0.603 ± 0.034	0.304 ± 0.0055	0.343 ± 0.026	0.547 ± 0.022
GRAVGLANFTIK	0.129 ± 0.012	0.659 ± 0.02	0.756 ± 0.033	0.641 ± 0.026	0.735 ± 0.015	0.65 ± 0.044	0.68 ± 0.042	0.7006 ± 0.0042
GRCGGPRSLGVG	0.547 ± 0.07	0.562 ± 0.036	0.589 ± 0.022	0.52 ± 0.022	0.5989 ± 0.001	0.5493 ± 0.0022	0.538 ± 0.012	0.5853 ± 0.0057
GSGCLFNRWRIL	0.287 ± 0.045	0.6956 ± 0.0048	0.7303 ± 0.0059	0.6487 ± 0.0063	0.733 ± 0.022	0.169 ± 0.034	0.196 ± 0.027	0.46 ± 0.0074
GSLLWSGWSTCY	0.761 ± 0.043	0.768 ± 0.018	0.811 ± 0.011	0.698 ± 0.058	0.826 ± 0.0092	0.6696 ± 0.0058	0.693 ± 0.022	0.763 ± 0.0077
GSWGGGWRYVGW	0.734 ± 0.033	0.761 ± 0.037	0.792 ± 0.016	0.663 ± 0.012	0.7947 ± 0.0036	0.664 ± 0.037	0.685 ± 0.023	0.759 ± 0.011
GTSDLIALLMLT	0.509 ± 0.083	0.688 ± 0.047	0.7275 ± 0.0021	0.607 ± 0.011	0.7058 ± 0.0013	0.361 ± 0.026	0.403 ± 0.045	0.601 ± 0.007
GTWCLAMARFCA	0.4775 ± 0.0038	0.615 ± 0.056	0.755 ± 0.016	0.662 ± 0.026	0.762 ± 0.047	0.351 ± 0.025	0.375 ± 0.025	0.606 ± 0.039
GVFVVVGEASVH	0.421 ± 0.023	0.546 ± 0.0025	0.5995 ± 0.0049	0.402 ± 0.023	0.574 ± 0.0029	0.389 ± 0.021	0.406 ± 0.017	0.564 ± 0.011
GVFVWVVFVCTM	0.268 ± 0.053	0.145 ± 0.015	0.315 ± 0.029	0.198 ± 0.017	0.3718 ± 0.00094	0.167 ± 0.0025	0.201 ± 0.013	0.315 ± 0.028
GVKSQLYSFVWF	0.45 ± 0.015	0.6552 ± 0.0036	0.74 ± 0.015	0.633 ± 0.023	0.747 ± 0.013	0.3088 ± 0.0017	0.352 ± 0.018	0.593 ± 0.014
GVRCRLVIRVLG	0.316 ± 0.028	0.47 ± 0.035	0.508 ± 0.0085	0.286 ± 0.016	0.516 ± 0.0056	0.16864 ± 0.00011	0.22 ± 0.0075	0.407 ± 0.0064
GVSFLFVGVSLV	0.419 ± 0.041	0.469 ± 0.065	0.499 ± 0.01	0.34 ± 0.031	0.5503 ± 0.0019	0.3088 ± 0.00076	0.354 ± 0.015	0.523 ± 0.019
GVVCWVVVFGGW	0.416 ± 0.035	0.307 ± 0.029	0.5008 ± 0.0019	0.281 ± 0.029	0.512 ± 0.0065	0.233 ± 0.0029	0.262 ± 0.034	0.442 ± 0.058
GVWSLDWFLLVW	0.24 ± 0.016	0.0785 ± 0.021	0.187 ± 0.026	0.158 ± 0.016	0.223 ± 0.0023	0.134 ± 0.016	0.15 ± 0.023	0.217 ± 0.017
GWFCLFFVVSTG	0.342 ± 0.026	0.213 ± 0.034	0.3162 ± 0.0016	0.225 ± 0.024	0.4003 ± 0.0021	0.203 ± 0.0087	0.225 ± 0.031	0.371 ± 0.012

— the supplement of paper PMC10724198
